Measurements reported in CN117466995A (YIDAO BIOTECHNOLOGY SUZHOU CO LTD, dated 2024).

Tests used:
Assay in all cases: direct ELISA on coated VLP antigens
HPV 52 VLP抗原 = molecular target: T1, HPV 52 VLP抗原 (HPV 52, UniProt Q05138 27-529)
T1 sequence: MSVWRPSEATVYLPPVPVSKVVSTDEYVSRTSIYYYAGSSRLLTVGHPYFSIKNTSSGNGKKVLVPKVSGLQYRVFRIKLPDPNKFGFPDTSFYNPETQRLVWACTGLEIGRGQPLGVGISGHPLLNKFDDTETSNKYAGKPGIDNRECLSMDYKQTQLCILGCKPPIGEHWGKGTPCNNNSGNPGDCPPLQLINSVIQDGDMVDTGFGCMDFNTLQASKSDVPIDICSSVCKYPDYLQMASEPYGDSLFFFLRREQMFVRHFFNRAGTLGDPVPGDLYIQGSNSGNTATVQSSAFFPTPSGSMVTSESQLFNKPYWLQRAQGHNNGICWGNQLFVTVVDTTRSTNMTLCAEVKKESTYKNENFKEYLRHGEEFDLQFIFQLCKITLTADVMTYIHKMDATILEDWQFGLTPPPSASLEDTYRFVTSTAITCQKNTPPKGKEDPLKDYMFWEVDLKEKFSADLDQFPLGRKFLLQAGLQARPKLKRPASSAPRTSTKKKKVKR

HPV 58 VLP抗原 = molecular target: T2, HPV 58 VLP抗原 (HPV 58, UniProt P26535 27-524)
T2 sequence: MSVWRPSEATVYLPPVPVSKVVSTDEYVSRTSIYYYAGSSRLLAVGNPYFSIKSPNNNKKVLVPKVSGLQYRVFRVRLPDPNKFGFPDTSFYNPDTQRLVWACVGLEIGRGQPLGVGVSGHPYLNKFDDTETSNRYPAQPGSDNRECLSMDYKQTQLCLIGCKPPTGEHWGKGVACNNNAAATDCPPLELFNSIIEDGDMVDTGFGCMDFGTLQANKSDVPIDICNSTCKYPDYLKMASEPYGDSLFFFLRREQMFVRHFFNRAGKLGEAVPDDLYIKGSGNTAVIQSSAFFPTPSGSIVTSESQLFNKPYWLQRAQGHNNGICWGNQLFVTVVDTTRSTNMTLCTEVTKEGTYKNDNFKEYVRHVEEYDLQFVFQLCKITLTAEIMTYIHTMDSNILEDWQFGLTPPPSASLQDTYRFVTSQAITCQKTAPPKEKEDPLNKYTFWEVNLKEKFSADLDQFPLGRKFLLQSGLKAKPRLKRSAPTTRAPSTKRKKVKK

HPV11 VLP抗原 = molecular target: T3, HPV11 VLP抗原 (HPV11, UniProt P04012 1-501)
T3 sequence: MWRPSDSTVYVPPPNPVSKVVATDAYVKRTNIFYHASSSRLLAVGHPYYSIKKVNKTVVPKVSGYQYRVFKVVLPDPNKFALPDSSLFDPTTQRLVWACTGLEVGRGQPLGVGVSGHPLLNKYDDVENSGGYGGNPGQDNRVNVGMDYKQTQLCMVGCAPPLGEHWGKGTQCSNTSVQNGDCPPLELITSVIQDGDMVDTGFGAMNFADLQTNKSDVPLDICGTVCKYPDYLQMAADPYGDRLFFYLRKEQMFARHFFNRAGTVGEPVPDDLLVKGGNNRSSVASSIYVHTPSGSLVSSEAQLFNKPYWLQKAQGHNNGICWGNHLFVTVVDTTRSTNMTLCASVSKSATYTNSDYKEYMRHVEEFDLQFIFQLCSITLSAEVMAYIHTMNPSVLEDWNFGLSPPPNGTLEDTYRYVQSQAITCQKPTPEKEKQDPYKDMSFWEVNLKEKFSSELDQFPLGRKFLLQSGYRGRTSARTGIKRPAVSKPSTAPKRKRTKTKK

HPV 16 VLP抗原 = molecular target: T4, HPV 16 VLP抗原 (HPV 16, UniProt P03101 1-505)
T4 sequence: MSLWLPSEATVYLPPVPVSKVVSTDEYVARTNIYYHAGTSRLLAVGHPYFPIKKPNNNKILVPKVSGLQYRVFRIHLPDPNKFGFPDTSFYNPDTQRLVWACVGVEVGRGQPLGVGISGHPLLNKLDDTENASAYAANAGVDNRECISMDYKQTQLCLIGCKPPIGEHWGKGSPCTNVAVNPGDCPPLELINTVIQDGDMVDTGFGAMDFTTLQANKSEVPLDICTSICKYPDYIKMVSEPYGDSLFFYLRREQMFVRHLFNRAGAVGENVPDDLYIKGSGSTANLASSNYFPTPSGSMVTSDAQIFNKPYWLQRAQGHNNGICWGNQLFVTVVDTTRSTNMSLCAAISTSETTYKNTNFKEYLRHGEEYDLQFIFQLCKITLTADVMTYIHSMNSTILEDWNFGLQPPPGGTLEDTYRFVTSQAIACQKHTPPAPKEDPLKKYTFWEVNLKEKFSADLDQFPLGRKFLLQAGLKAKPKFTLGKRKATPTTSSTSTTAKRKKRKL

HPV 31 VLP抗原 = molecular target: T5, HPV 31 VLP抗原 (HPV 31, UniProt P17388 1-504)
T5 sequence: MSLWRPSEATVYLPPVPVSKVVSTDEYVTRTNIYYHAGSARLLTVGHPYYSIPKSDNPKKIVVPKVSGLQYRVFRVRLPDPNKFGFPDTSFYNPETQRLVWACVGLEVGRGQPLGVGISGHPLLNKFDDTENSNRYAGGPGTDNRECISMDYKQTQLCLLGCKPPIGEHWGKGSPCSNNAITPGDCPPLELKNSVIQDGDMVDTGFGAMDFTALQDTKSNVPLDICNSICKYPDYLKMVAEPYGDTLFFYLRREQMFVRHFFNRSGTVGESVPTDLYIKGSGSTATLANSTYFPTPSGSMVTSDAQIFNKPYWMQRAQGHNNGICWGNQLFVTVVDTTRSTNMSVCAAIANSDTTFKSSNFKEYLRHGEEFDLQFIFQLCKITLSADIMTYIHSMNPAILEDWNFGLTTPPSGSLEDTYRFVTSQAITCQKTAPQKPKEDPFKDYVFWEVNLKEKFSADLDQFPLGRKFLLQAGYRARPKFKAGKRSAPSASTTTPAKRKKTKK

Measured: binding result

B1: 杂交瘤细胞株7A5(CGMCC NO:45706)分泌的鼠源单克隆抗体 (antibody, V domains shown)
VH: QPGAELVKPGASVKLSCKASGYTFTSYWMHWVKQRPGQGLEWIGEINPSNGHTNYNEKFKSKATLTVDKSSSTAYMQLSSLTSEDSAVYYCAPCYGSSYDYYAMDYWGQGTSVTVSS
VL: DIVLTQSPASLAVSLGQRATISCRASQSVSTSSYSYMHWYQQKPGQPPKLLIKYASNLESGVPARFSGSGSGTDFTLNIHPVEEEDTATYYCQHSWEIPYTFGGGTKLEIK
notes: also called 鼠单抗7A5; 抗体7A5
no binding: HPV 52 VLP抗原 | HPV 58 VLP抗原 | HPV11 VLP抗原 | HPV 16 VLP抗原 | HPV 31 VLP抗原

B2: 杂交瘤细胞株11G1(CGMCC NO:45707)分泌的鼠源单克隆抗体 (antibody, V domains shown)
VH: QVQLQQPGAELVKPGASVKLSCKASGYTFTSYWMHWVKRRPGQGLEWIGEINPSNGLTNYNEKFKSKGTLTVDKSSSAAFMHLSSLTSEDSAVYYCARFHGSDLYAMDYWGQGTSVTVSS
VL: DIVLTQSPASLAVSLGQRATISCRASQSVSTSSYSYMHWYQQKPGQPPKLLIKYASNLESGVPARFSGSGSGTDFTLNIHPVEEEDTATYYCQHSWEIPYTFGGGTKLEIK
notes: also called 鼠单抗11G1; 抗体11G1
no binding: HPV 52 VLP抗原 | HPV 58 VLP抗原 | HPV11 VLP抗原 | HPV 16 VLP抗原 | HPV 31 VLP抗原
